Data as given in patent US20120088237.
Where a chain is given by its changes, count along the chain named.

Assays:
[1] = tested on: T1, BstNI R200C R200C (Bacillus stearothermophilus); experiment: cleavage_in_vitro; details: 5mC at inner (second) C of CCWGG (dcm); NEB1, NEB2 and NEB4 each 100; NEB3 10; 60 C 1 h, crude lysate
T1 sequence: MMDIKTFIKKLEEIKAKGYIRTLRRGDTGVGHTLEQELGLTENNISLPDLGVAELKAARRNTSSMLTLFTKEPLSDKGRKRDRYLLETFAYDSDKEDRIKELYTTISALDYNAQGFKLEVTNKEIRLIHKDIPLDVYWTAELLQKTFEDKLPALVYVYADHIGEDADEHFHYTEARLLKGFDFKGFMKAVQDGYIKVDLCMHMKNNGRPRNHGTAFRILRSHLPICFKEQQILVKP

[2] = tested on: T2, BstNI (Bacillus stearothermophilus); experiment: cleavage_in_vitro; details: 5mC at inner (second) C of CCWGG (dcm); NEB1 and NEB4 0.1; NEB2 0.5; NEB3 2; 60 C 1 h, crude lysate
T2 sequence: T1 sequence with C200R

## CCWGG (double strand) [dcm+ plasmid pBC4 (C5mCWGG)]
[1]
  relative cleavage in vitro (fold (dcm+/dcm- cleavage)): 100
[2]
  relative cleavage in vitro (fold (dcm+/dcm- cleavage)): 0.1
